According to patent US20150306241:

Biological target: T1, PEG2000-peptide-PTX
T1 chain: GPLGIAGQ

B1: Human active MMP2 protein (MW 66,000 Da) (protein)
chain: YNFFPRKPKWDKNQITYRIIGYTPDLDPETVDDAFARAFQVWSDVTPLRFSRIHDGEADIMINFGRWEHGDGYPFDGKDGLLAHAFAPGTGVGGDSHFDDDELWTLGEGQVVRVKYGNADGEYCKFPFLFNGKEYNSCTDTGRSDGFLWCSTTYNFEKDGKYGFCPHEALFTMGGNAEGQPCKFPFRFQGTSYDSCTTEGRTDGYRWCGTTEDYDRDKKYGFCPETAMSTVGGNSEGAPCVFPFTFLGNKYESCTSAGRSDGKMWCATTANYDDDRKWGFCPDQGYSLFLVAAHEFGHAMGLEHSQDPGALMAPIYTYTKNFRLSQDDIKGIQELYGASPDIDLGTGPTPTLGPVTPEICKQDIVFDGIAQIRGEIFFFKDRFIWRTVTPRDKPMGPLLVATFWPELPEKIDAVYEAPQEEKAVFFAGNEYWIYSASTLERGYPKPLTSLGLPPDVQRVDAAFNWSKNKKTYIFAGDKFWRYNEVKKKMDPGFPKLIADAWNAIPDNLDAVVDLQGGGHSYFFKGAYYLKLENQSLKSVKFGSIKSDWLGC
In the case of B1, the “enzymatic digestion followed by TLC (5 ng/µL human MMP2)” value is reported as “the MMP2 completely cleaved the peptide linker resulting in two digestion fragments (IAGQ-PTX and PEG-GPLG)”.
